One may read the EC50 (read off the curve) as the concentration needed to bring the measured effect to its halfway point.

The record followed here is patent publication US20200165324A1.

Positions count from the first letter of the chain named.

Assay [1] deals with Env of the 12-virus indicator panel. Description: cell-based or functional assay.
For assay [2], the target named is Env of the 117-virus panel (117 cross-clade virus panel). Description: cell-based or functional assay.
Assay [3] has as its target stabilized BG505 SOSIP construct MD39 (HIV isolate BG505). Description: competition ELISA on MD39 vs PGT151. (ELISA stands for enzyme-linked immunosorbent assay.)
For assay [4] the target is unchanged. Description: competition ELISA on MD39 vs 35022.
For assay [5] the target is unchanged. Description: competition ELISA on MD39 vs PG9.
Assay [6] shares this target. Description: competition ELISA on MD39 vs PGDM1400.
Assay [7] shares this target. Description: competition ELISA on MD39 vs PGT128.
The target is the same in assay [8]. Description: competition ELISA on MD39 vs PGT121.
Assay [9] shares this target. Description: competition ELISA on MD39 vs Self.
For assay [10] the target is unchanged. Description: competition ELISA on MD39 vs CH103.
Assay [11] shares this target. Description: competition ELISA on MD39 vs VRC01.
Assay [12] has the same target. Description: competition ELISA on MD39 vs 12A12.
Assay [13] has the same target. Description: competition ELISA on MD39 vs b12.
The target is the same in assay [14]. Description: competition ELISA on MD39 vs 3BNC117.
Assay [15] deals with gp120 (isolate 92BR020) (HIV-1 isolate 92BR020). Description: ELISA on gp120 (isolate 92BR020), buffer pH 6.
Assay [16] has the same target. Description: ELISA on gp120 (isolate 92BR020), buffer pH 5.5.

B1: germline PG9 HC (NC-Cow1 VH CDR3) + mature PG9 LC (antibody)
VH: QVQLVESGGGVVQPGRSLRLSCAASGFTFSSYGMHWVRQAPGKGLEWVAVISYDGSNKYYADSVKGRFTISRDNSKNTLYLQMNSLRAEDTAVYYCITAHQKTNKKECPEDYTYNPRCPQQYGWSDCDCMGDRFGGYCRQDGCSNYIHRSTYEWYVSAWGKGTTVTVSS
VL: QSALTQPASVSGSPGQSITISCNGTSNDVGGYESVSWYQQHPGKAPKVVIYDVSKRPSGVSNRFSGSKSGNTASLTISGLQAEDEGDYYCKSLTSTRRRVFGTGTKLTVL
In assay [1], B1 showed a median IC50 of neutralization on the 12-virus indicator panel of 0.054 µg/mL and a neutralization breadth on the 12-virus indicator panel of 88%.

B2: NC-Cow1 (antibody)
VH: QVQLRESGPSLMKPSQTLSLTCTVSGSSLNDKSVGWVRQAPGKALQWLGSVDTSGNTDYNPGLKSRLSITKDNSKSRISLTVTGMTTEDSATYYCITAHQKTNKKECPEDYTYNPRCPQQYGWSDCDCMGDRFGGYCRQDGCSNYIHRSTYEWYVSAWGQGLLVTVSS
VL: SYELTQPSSVSGSLGQRVSVTCSGSSSNVGNGYVSWYQLIPGSAPRTIIYGDTSRASGVPERFSGSRSGNTATLTISSLQAEDEADFFCASPDDSSSNAVFGSGTTLTVL
Turning to B2, the IC50, pseudovirus neutralization with BG505 N262A is 0.014 µg/mL; with BG505 D474A it was 9 ng/mL; with JR-CSF V372A it was over 50 µg/mL; with JR-CSF K282A it was over 50 µg/mL; with JR-CSF P369A it was 1.24 µg/mL; in the assay with JR-CSF D474A it was 0.744 µg/mL. For the same molecule, the figures for the IC50, pseudovirus neutralization with JR-CSF D279A, with JR-CSF M373A and with BG505 N276A were 1.02 µg/mL, 2.52 µg/mL and 0.011 µg/mL, respectively. In [2], the median IC50 of neutralization on the 117-virus panel is 0.028 µg/mL. In assay [2], this molecule yielded a neutralization breadth on the 117-virus panel (pseudovirus, TZM-bl cells) of 72%. This molecule also showed a median IC50 of neutralization on the 12-virus indicator panel in assay [1] of 0.007 µg/mL. In [1], this molecule yielded a neutralization breadth on the 12-virus indicator panel of 100%.

B3: NC-Cow7 (antibody)
VH: KVQLRESGPSLVKPFETLSLTCTGSGFSLSDKAAGWVRQAPGKAPEWLGSIDTGGNTGYNPGLKYRLSITKDNSKSQVSLSVSSMTSEDSATYYCTTVHQKAYKKVCPDDYSSNPDCVRLYGWSHCDCMRDSFGGWCRADGCSSTVEIGPYEWYVNAWGQGLLVTVSS
VL: B2 VL with S1Q, Y2A, E3V, V20I, T47S, I48L, E61D, F87Y, D93E, A99G
With B3, the competition value came to 20 in assay [3]; 5 in [4]; 8 in assay [5]; 12 in assay [6]; 31 in assay [7]; 23 in assay [8]. In addition, the competition value in assay [9] was found to be 90; in assay [10] it was 35; in assay [11], 87; in [12] it was 92; in [13], 9; in assay [14], 90.

B4: NC-Cow5 (antibody)
VH: QVQLQESGPSLVKPSQTLSLTCMVSGFSLNDKAVGWVRQAPGKALEWLGSIDAGGSTGYNPGLKSRLSISKDNSKNQVSLSVSSVTTEDSATYYCGTVHQRTQPKQTCPNGYSDDSALRYYSRCSDRDCWRCTGTTYYDTCQCSSYTYIHTYELYVDAWGQGLLVTVSS
VL: B2 VL with S1Q, Y2D, E3V, V20I, I48L, E61D, F87Y, D93E
In the case of B4, the competition value was determined as 2 in assay [3]; 14 in assay [4]; 21 in [5]; 3 in assay [6]; 71 in [7]; 21 in [8]. The competition value in assay [9] turned out to be 37; in assay [10] it was 38; in assay [11], 95; in assay [12] it was 95; in assay [13], 23; in assay [14], 94.

B5: NC-Cow2 (antibody)
VH: KVQLRESGPSLVKPSQTLSLTCMVSGSSLSDKAVGWVRQAPGKALEWLGIISAGGNRGYNSGLRSRLTISKDNSKNEVSLRVRSVTTEDSATYFCGTVHQKTQRKPICPDGYSDDSTLRYYSRCSDRDCWRCTGTTYYDTCQCGTYTWIDTHELHVDAWGQGLLVTVSS
VL: B2 VL with S1Q, Y2A, E3V, T5N, V20I, I48L, E61D, F87Y, P92A, D93E
Take B5: the competition value in assay [3] is 11; in [4] it was 11; in [5], 4; in assay [6], 18; in assay [7] it was 57; in [8], 27. Moreover, the competition value in assay [9] came to 91; in assay [10], 11; in assay [11], 93; in [12], 94; in [13] it was 0; in assay [14], 93.

B6: NC-Cow4 (antibody)
VH: B4 VH with Q1K, Q5R, K32E
VL: B2 VL with S1Q, Y2A, E3V, V20I, I48L, E61D, F87Y, D93E
B6: the competition value was 20 in assay [3]; 18 in [4]; 7 in [5]; 22 in [6]; 35 in assay [7]; -11 in [8]. For the same molecule, the competition value was found to be 84 in assay [9]; 13 in assay [10]; 94 in assay [11]; 95 in assay [12]; 29 in assay [13]; 95 in [14].

B7: PGV04 (antibody, from a related filing, V domains shown)
VH: QVQLVQSGSGVKKPGASVRVSCWTSEDIFERTELIHWVRQAPGQGLEWIGWVKTVTGAVNFGSPDFRQRVSLTRDRDLFTAHMDIRGLTQGDTATYFCARQKFYTGGQGWYFDLWGRGTLIVVSS
VL: EIVLTQSPGTLSLSPGETASLSCTAASYGHMTWYQKKPGQPPKLLIFATSKRASGIPDRFSGSQFGKQYTLTITRMEPEDFARYYCQQLEFFGQGTRLEIR
As for B7, the concentration giving a half-maximal response (EC50 (read off the curve)) in [15] and in assay [16] was 0.2 µg/mL each time.
